From IntAct's records for PubMed 23395182

B1: Syndecan-1 (Homo sapiens), P18827 (parent)
chain: MRRAALWLWLCALALSLQPALPQIVATNLPPEDQDGSGDDSDNFSGSGAGALQDITLSQQTPSTWKDTQLLTAIPTSPEPTGLEATAASTSTLPAGEGPKEGEAVVLPEVEPGLTAREQEATPRPRETTQLPTTHLASTTTATTAQEPATSHPHRDMQPGHHETSTPAGPSQADLHTPHTEDGGPSATERAAEDGASSQLPAAEGSGEQDFTFETSGENTAVVAVEPDRRNQSPVDQGATGASQGLLDRKEVLGGVIAGGLVGLIFAVCLVGFMLYRMKKKDEGSYSLEEPKQANGGAYQKPTKQEEFYA
B2: Rho guanine nucleotide exchange factor TIAM1 (Homo sapiens), Q13009 (parent)
chain: MGNAESQHVEHEFYGEKHASLGRKHTSRSLRLSHKTRRTRHASSGKVIHRNSEVSTRSSSTPSIPQSLAENGLEPFSQDGTLEDFGSPIWVDRVDMGLRPVSYTDSSVTPSVDSSIVLTAASVQSMPDTEESRLYGDDATYLAEGGRRQHSYTSNGPTFMETASFKKKRSKSADIWREDSLEFSLSDLSQEHLTSNEEILGSAEEKDCEEARGMETRASPRQLSTCQRANSLGDLYAQKNSGVTANGGPGSKFAGYCRNLVSDIPNLANHKMPPAAAEETPPYSNYNTLPCRKSHCLSEGATNPQISHSNSMQGRRAKTTQDVNAGEGSEFADSGIEGATTDTDLLSRRSNATNSSYSPTTGRAFVGSDSGSSSTGDAARQGVYENFRRELEMSTTNSESLEEAGSAHSDEQSSGTLSSPGQSDILLTAAQGTVRKAGALAVKNFLVHKKNKKVESATRRKWKHYWVSLKGCTLFFYESDGRSGIDHNSIPKHAVWVENSIVQAVPEHPKKDFVFCLSNSLGDAFLFQTTSQTELENWITAIHSACATAVARHHHKEDTLRLLKSEIKKLEQKIDMDEKMKKMGEMQLSSVTDSKKKKTILDQIFVWEQNLEQFQMDLFRFRCYLASLQGGELPNPKRLLAFASRPTKVAMGRLGIFSVSSFHALVAARTGETGVRRRTQAMSRSASKRRSRFSSLWGLDTTSKKKQGRPSINQVFGEGTEAVKKSLEGIFDDIVPDGKREKEVVLPNVHQHNPDCDIWVHEYFTPSWFCLPNNQPALTVVRPGDTARDTLELICKTHQLDHSAHYLRLKFLIENKMQLYVPQPEEDIYELLYKEIEICPKVTQSIHIEKSDTAADTYGFSLSSVEEDGIRRLYVNSVKETGLASKKGLKAGDEILEINNRAADALNSSMLKDFLSQPSLGLLVRTYPELEEGVELLESPPHRVDGPADLGESPLAFLTSNPGHSLCSEQGSSAETAPEETEGPDLESSDETDHSSKSTEQVAAFCRSLHEMNPSDQSPSPQDSTGPQLATMRQLSDADKLRKVICELLETERTYVKDLNCLMERYLKPLQKETFLTQDELDVLFGNLTEMVEFQVEFLKTLEDGVRLVPDLEKLEKVDQFKKVLFSLGGSFLYYADRFKLYSAFCASHTKVPKVLVKAKTDTAFKAFLDAQNPKQQHSSTLESYLIKPIQRILKYPLLLRELFALTDAESEEHYHLDVAIKTMNKVASHINEMQKIHEEFGAVFDQLIAEQTGEKKEVADLSMGDLLLHTTVIWLNPPASLGKWKKEPELAAFVFKTAVVLVYKDGSKQKKKLVGSHRLSIYEDWDPFRFRHMIPTEALQVRALASADAEANAVCEIVHVKSESEGRPERVFHLCCSSPESRKDFLKAVHSILRDKHRRQLLKTESLPSSQQYVPFGGKRLCALKGARPAMSRAVSAPSKSLGRRRRRLARNRFTIDSDAVSASSPEKESQQPPGGGDTDRWVEEQFDLAQYEEQDDIKETDILSDDDEFCESVKGASVDRDLQERLQATSISQRERGRKTLDSHASRMAQLKKQAALSGINGGLESASEEVIWVRREDFAPSRKLNTEI
partner: B1 chain

Variants of: B1
Details: with tiam1_human TIAM1, Q13009

| effect of a mutation on the interaction | Variant |
| --- | --- |
| decreasing interaction strength | MRRAALWLWLCALALSLQPALPQIVATNLPPEDQDGSGDDSDNFSGSGAGALQDITLSQQTPSTWKDTQLLTAIPTSPEPTGLEATAASTSTLPAGEGPKEGEAVVLPEVEPGLTAREQEATPRPRETTQLPTTHLASTTTATTAQEPATSHPHRDMQPGHHETSTPAGPSQADLHTPHTEDGGPSATERAAEDGASSQLPAAEGSGEQDFTFETSGENTAVVAVEPDRRNQSPVDQGATGASQGLLDRKEVLGGVIAGGLVGLIFAVCLVGFMLYRMKKKDEGSYSLEEPKQANGGAYQKPTKQKEFYA [E306K] |

Variants of: B2
Details: with sdc1_human SDC1, P18827

| effect of a mutation on the interaction | Variant |
| --- | --- |
| decreasing interaction strength | K912E |
| decreasing interaction strength | K879E |
